± gives the standard deviation of the averaged measurements.
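Note: PSI is a weighted mean of sequencing reads over stability bins, variants kept only with over 10 reads, mCherry proximal and sfGFP distal, peptide attached via GGGS linker.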

This series deals with Saccharomyces cerevisiae. In words: protein stability index of tFT-peptide fusion (C-terminal peptide) (PSI (0-1 scale)); higher = more stable (slower turnover). The note with it: genetic background: wild type; temperature: 30 C.
In the case of KKIKKKKNKKQE, the protein stability index is 0.735 ± 0.075.
The sequence KKKIERKKNKEK returned a protein stability index of 0.743 ± 0.071.
To KKKKEKNKHNIR belongs 0.72 ± 0.009; to KKKKKIEQRKQE, 0.67 ± 0.017; to KKKKKKKESRSS, 0.68 ± 0.045.
The same measure for KKKKKKKKNMKR: 0.683 ± 0.024; for KKKKKKKKTNKE: 0.656 ± 0.11; for KKKKKKKMTNLK: 0.809 ± 0.054.
To KKKKKKKQIKKK belongs 0.747 ± 0.026.
Take KKKKKKKRNGAP: the protein stability index amounted to 0.667 ± 0.05.
KKKKKKRIREKR showed a protein stability index of 0.721 ± 0.048.
To KKKKKKRNKQKN belongs 0.752 ± 0.043; to KKKKKSEIPKIT, 0.686 ± 0.084.
As for KKKKNKLRNKQE, the protein stability index was determined as 0.656 ± 0.015.
In turn, KKKKNNKETKNK registered a protein stability index of 0.705 ± 0.015.
KKKKPKNKSKDK came in with a protein stability index of 0.634 ± 0.095.
For KKKKPKQKQKET, the protein stability index came to 0.686 ± 0.016.
Sequence KKKKTKKKKINI came in with a protein stability index of 0.605 ± 0.0077.
KKKKTKKSKQKK displayed a protein stability index of 0.721 ± 0.0089.
Sequence KKKLKRTIKKIA displayed a protein stability index of 0.481 ± 0.034.
As to KKKNEKQNRLKN, the protein stability index was found to be 0.769 ± 0.029.
Turning to KKKNKENKKKKK, the protein stability index stood at 0.737 ± 0.023.
For the sequence KKKREKKKENTK, the protein stability index came to 0.7108 ± 0.0067.
To KKKRIERKEKGE belongs 0.676 ± 0.059; to KKKRMKIKCIGI, 0.647 ± 0.063.
In turn, KKKTIKNNERSK came in with a protein stability index of 0.69 ± 0.071.
KKKYKKNKKKNK had a protein stability index of 0.65 ± 0.033.
The sequence KKLGLRLTFLHC displayed a protein stability index of 0.564 ± 0.043.
To KKNEEKRRGEGK belongs 0.67 ± 0.049; to KKNERKEKNNTN, 0.673 ± 0.014.
KKNETKQEKNTR had a protein stability index of 0.689 ± 0.026.
KKNEVIKKNLRK displayed a protein stability index of 0.616 ± 0.063.
Take KKNIKKKRNIEK: the protein stability index is 0.625 ± 0.04.
Sequence KKNIKKKTKQKE showed a protein stability index of 0.696 ± 0.007.
KKNKNKEYCKVK gave a protein stability index of 0.734 ± 0.082.
On to KKNNNINKHTST, for which the protein stability index came out at 0.6652 ± 0.0058.
The sequence KKNYEKPIRKYQ showed a protein stability index of 0.642 ± 0.02.
KKQHTKKKKKKR showed a protein stability index of 0.752 ± 0.041.
To KKQKKQKKKSHK belongs 0.715 ± 0.047.
To KKRDKKKLRRVE belongs 0.672 ± 0.044; to KKRGKNSKAQRE, 0.694 ± 0.013.
Consider KKRHYSCYKNTN, for which the protein stability index amounted to 0.725 ± 0.015.
Turning to KKSIVEARLSNM, the protein stability index is 0.58 ± 0.075.
KKTNTQTKKKTK registered a protein stability index of 0.709 ± 0.075.
As for KKTQKNIKKKAK, the protein stability index was found to be 0.679 ± 0.025.
With KKTRRGSNKKEG, the protein stability index is 0.681 ± 0.025.
The sequence KKTSQKQKGKRQ showed a protein stability index of 0.671 ± 0.12.
To KLCGIYMVGGKK belongs 0.65093 ± 0.00038; to KLGLLKVRVCDG, 0.608 ± 0.0061.
KLGRWGARGSGR: the protein stability index came out at 0.655 ± 0.021.
Regarding KLKTKQNKERNK, the protein stability index is 0.757 ± 0.076.
Take KLREKKLLKIAE: the protein stability index stood at 0.679 ± 0.042.
With KLSSQAWMISEK, the protein stability index is 0.695 ± 0.055.
With KLVGFRPHAWWF, the protein stability index came out at 0.701 ± 0.016.
KNIIEKKIKKRK came in with a protein stability index of 0.711 ± 0.0049.
Regarding KNKKEKKKVKRT, the protein stability index is 0.687 ± 0.026.
The sequence KNKKKKKTKKKK registered a protein stability index of 0.792 ± 0.079.
In turn, KNKKKNKNNKKK registered a protein stability index of 0.7048 ± 0.00079.
Sequence KNKKNKKKTPTT returned a protein stability index of 0.727 ± 0.013.
Regarding KNNVVKIEEEKK, the protein stability index is 0.751 ± 0.013.
KNRHWNKKIRKC displayed a protein stability index of 0.6533 ± 0.0065.
For KNRKSYTINSRK, the protein stability index came out at 0.656 ± 0.055.
As for KPKANTEKIPIQ, the protein stability index was 0.68 ± 0.018.
For KPKHNKKILEKK, the protein stability index was found to be 0.671 ± 0.037.
KPKLSHPQPLRI displayed a protein stability index of 0.699 ± 0.016.
To KPLPPPEFRPHP belongs 0.69 ± 0.02.
The sequence KPRFRATPRQTT had a protein stability index of 0.713 ± 0.037.
KPRLARLSLSLL gave a protein stability index of 0.784 ± 0.14.
The same measure for KQKQRKERIKRK: 0.688 ± 0.069; for KQVIIEKSIQQR: 0.661 ± 0.051; for KRAPEPPTPPAP: 0.672 ± 0.015.
KRGKNKKRKQKK showed a protein stability index of 0.716 ± 0.0076.
With KRNKITKKDRIN, the protein stability index amounted to 0.613 ± 0.031.
As for KRNKKCKKIKKK, the protein stability index is 0.677 ± 0.11.
The sequence KRRNKEHNKIRD displayed a protein stability index of 0.652 ± 0.052.
The sequence KSAGNWSKGKRE had a protein stability index of 0.713 ± 0.083.
In turn, KSGGWLWVGGGG registered a protein stability index of 0.748 ± 0.039.
As for KSHKKKKKNKNF, the protein stability index is 0.539 ± 0.0035.
KSKGGGTEPNRR displayed a protein stability index of 0.695 ± 0.009.
KSKKKKKNKTNR yielded a protein stability index of 0.6792 ± 0.0022.

Values taken from the supplement of paper PMC10724198.
